Source: patent publication US20260049134A1 (UNIVERSITY OF FLORIDA RESEARCH FOUNDATION, published 2026)
Substitutions are numbered along the chain they refer to. Numbers in names are those of the source.

Tests used:
[1] = biological target: T1, DCC; experiment: ELISA on coated DCC-His
T1 construct: coated protein in the ELISA; also called DCC-His (R&D Systems)
T1 chain: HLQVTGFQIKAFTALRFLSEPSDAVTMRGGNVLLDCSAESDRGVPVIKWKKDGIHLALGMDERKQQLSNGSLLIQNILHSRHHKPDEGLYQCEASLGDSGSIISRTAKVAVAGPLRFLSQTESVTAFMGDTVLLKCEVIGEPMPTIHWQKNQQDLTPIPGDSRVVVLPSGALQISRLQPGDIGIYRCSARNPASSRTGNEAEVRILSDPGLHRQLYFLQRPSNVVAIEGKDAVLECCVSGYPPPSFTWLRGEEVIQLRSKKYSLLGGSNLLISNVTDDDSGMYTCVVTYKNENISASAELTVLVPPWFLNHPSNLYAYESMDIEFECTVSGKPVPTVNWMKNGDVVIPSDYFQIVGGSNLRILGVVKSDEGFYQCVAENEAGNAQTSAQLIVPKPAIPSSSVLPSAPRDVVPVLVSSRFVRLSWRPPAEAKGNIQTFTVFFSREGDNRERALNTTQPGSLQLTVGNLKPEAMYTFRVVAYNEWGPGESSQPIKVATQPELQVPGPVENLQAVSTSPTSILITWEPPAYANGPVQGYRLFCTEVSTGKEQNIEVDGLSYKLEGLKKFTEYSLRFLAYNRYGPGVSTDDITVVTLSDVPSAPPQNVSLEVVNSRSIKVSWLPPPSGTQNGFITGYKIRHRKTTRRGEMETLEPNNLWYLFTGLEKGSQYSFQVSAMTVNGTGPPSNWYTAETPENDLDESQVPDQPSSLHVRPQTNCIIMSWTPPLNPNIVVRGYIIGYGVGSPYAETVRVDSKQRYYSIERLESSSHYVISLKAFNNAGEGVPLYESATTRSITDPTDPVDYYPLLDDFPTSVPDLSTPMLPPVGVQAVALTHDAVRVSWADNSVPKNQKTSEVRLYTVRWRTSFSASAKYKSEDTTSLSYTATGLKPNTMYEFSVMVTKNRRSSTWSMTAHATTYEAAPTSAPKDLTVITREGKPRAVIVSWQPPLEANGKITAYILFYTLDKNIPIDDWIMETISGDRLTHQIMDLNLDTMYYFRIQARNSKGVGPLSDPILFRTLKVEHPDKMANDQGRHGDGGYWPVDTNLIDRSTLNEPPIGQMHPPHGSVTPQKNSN
Description: (§1) Recombinant purified ECDs (50-150 ng) of each putative target protein were coated, incubated with 150 ng of the indicated primary antibody, and binding was detected using a peroxidase-conjugated anti-human Fab secondary antibody. Heatmap represents averages of technical triplicates. (8B) Target validation via siRNA knockdown. H929 cells were transfected with siRNA pools targeting the putative antibody targets ICAM1, CADM1, and PTPRG. Cells were then subjected to cognate IgG binding analysis via flow cytometry. (NT, non-targeting siRNA).
(§2) ELISA ELISA was conducted as described previously. Briefly, 50-150 ng of antigen was coated overnight in half-area 96-well plates at 4° C., blocked with 3% BSA at 37° C. for 1 h, and 150 ng of chimeric rabbit/human IgG1 was added, incubating for 2 h at 37° C. […] After incubating at 37° C. for 15 min-1 h (depending on intensity of controls), data were acquired using a SpectraMax M5 plate reader (Molecular Devices).

[2] = biological target: T2, SLAMF7; experiment: ELISA on coated SLAMF7-StrepTag
T2 construct: coated protein in the ELISA; also called SLAMF7-StrepTag
T2 chain: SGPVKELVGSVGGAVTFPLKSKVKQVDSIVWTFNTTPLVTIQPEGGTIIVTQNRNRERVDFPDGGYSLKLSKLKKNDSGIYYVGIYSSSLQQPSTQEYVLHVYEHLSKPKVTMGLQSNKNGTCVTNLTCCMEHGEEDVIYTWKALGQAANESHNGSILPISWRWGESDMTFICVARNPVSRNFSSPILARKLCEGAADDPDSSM
Description: as §1, §2

[3] = biological target: T3, PTPRG, endogenous in H929 multiple myeloma cells (human, UniProt P23470 20-1445); experiment: flow cytometry, H929 + NT Green siRNA; None 1.35
T3 construct: Native protein on H929 cells (flow cytometry, siRNA knockdown) and in H929 lysates (IP/MS); also called phosphatase receptor type γ

[4] = biological target: T4, PTP4A3 (PRL-3); experiment: ELISA on coated His-PTP4A3, 150 ng IgG1; None 0.085
T4 construct: coated protein in the ELISA; also called His-PTP4A3 (R&D Systems)
Description: as §1, §2

[5] = biological target: T5, GARS, endogenous in H929 multiple myeloma cells (human, UniProt P41250 37-739, limits assumed); experiment: flow cytometry, H929 + vehicle; None 513; surface target GARS putative
T5 construct: Native protein pulled down from H929 lysates; also called Glycyl-tRNA synthetase; GlyRS
T5 sequence: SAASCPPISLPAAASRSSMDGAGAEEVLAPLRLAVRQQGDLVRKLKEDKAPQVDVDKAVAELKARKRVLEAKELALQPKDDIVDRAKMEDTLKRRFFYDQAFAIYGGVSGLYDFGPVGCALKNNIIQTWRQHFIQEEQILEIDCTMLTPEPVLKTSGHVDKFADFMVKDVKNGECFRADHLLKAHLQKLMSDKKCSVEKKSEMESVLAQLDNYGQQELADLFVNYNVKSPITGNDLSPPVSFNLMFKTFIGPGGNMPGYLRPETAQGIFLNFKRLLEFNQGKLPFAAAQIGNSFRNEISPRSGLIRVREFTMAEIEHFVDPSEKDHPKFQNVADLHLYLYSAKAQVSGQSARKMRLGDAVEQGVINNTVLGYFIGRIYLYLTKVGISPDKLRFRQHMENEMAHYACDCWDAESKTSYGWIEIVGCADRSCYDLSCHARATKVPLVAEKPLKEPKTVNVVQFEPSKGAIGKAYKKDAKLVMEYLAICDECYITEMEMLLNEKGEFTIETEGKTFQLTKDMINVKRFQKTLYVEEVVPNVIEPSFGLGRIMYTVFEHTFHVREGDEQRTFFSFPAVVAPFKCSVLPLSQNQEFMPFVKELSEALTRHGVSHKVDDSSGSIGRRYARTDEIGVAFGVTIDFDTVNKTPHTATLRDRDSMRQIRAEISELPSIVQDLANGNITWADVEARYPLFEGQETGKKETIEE

[6] = biological target: T5, GARS, endogenous in H929 multiple …; experiment: flow cytometry, H929 + CDH18 siRNA; None 443; surface target GARS putative

T4 sequence (chain, as listed by the source limits assumed): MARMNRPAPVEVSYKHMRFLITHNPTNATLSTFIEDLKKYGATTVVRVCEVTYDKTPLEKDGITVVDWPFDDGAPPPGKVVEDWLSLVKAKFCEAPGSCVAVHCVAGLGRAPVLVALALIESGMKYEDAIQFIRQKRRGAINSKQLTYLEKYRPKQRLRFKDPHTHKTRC
T3 sequence (P23470 20-1445 limits assumed): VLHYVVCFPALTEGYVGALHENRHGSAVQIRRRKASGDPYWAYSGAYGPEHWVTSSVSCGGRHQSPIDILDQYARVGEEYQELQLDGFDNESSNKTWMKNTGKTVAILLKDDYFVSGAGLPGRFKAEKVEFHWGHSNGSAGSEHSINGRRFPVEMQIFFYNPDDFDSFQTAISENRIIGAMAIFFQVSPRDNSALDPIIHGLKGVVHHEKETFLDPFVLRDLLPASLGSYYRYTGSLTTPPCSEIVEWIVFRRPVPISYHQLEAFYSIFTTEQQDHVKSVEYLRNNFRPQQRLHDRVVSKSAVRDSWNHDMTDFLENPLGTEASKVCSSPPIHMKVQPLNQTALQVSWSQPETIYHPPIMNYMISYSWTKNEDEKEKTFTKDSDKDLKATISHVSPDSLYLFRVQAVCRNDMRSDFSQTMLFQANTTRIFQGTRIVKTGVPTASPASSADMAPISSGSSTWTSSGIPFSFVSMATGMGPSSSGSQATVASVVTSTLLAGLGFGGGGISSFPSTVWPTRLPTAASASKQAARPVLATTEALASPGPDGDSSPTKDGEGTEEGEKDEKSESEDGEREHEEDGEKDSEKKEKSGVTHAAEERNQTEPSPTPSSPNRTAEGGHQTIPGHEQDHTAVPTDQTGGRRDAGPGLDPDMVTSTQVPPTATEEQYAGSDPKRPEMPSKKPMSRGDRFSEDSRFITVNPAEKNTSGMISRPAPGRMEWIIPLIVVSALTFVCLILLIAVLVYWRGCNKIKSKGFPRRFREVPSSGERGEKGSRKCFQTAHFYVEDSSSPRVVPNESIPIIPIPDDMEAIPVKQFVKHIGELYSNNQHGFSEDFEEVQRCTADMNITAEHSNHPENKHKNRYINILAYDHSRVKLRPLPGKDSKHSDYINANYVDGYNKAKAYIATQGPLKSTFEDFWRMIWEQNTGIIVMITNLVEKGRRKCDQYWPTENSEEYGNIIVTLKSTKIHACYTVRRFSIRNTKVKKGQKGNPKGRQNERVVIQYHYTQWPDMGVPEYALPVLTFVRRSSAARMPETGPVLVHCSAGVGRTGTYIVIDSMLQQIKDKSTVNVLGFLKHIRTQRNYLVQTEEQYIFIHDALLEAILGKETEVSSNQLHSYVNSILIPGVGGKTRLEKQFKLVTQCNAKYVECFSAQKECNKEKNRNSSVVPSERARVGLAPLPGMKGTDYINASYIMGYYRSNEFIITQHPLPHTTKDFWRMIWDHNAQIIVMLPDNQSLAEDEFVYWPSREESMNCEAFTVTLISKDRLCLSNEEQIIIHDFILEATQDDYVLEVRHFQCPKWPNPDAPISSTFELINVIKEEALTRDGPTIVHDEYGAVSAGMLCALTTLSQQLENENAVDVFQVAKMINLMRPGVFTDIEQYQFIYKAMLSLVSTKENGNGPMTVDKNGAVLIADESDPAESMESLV

B1: HW-17 chimeric rabbit-human IgG1 LA/LA/PG (antibody, V domains shown)
VH: QSLGESRGRLVTPDETLTLTCTVSGIDLSSNAMSWVRQAPGEGLEWIGTINTGGRAYYASWAKGRFTISRTSTTVDLKMTSLTTEDTATYFCARERYSDGRAYDIWGPGTLVTISS
VL: SFVLTQPASVQVNLGQTVSLTCTADTLSRRYASWYQQKPGQAPVLLIYTDSNRPSGIPDRFSGSSSGNTATLTISGAQAGDEADYYCATDDGSGSIYQYVFGGGTQLTVTG
notes: Fc-silenced (L234A/L235A/P329G) IgG1, lambda; Alexa Fluor 647-labeled in single-step flow cytometry; Cluster C-1
- binding result [1]: no binding (tested: 150 ng IgG1 per well)
- binding result [2]: no binding (tested: 150 ng IgG1 per well)
- Cells stained (%) [3]: 99%
- ELISA Absorbance (405 nm-570 nm) [4]: 0.072

B2: HW-70 chimeric rabbit-human IgG1 LA/LA/PG (antibody, V domains shown)
VH: QSLEESGGRLVTPGTPLTLTCTVSGFSLSSNAMSWVRQAPGKGLEWIGTIDGYGYTYYASWAKGRFTVSKTSTTVDLKITSPTTEDTATYFCAREIYLGSNFWGPGTLVTISS
VL: B1 VL with T49R, S51T, N52S, I57V, D90A, I96S, Y99F
notes: as for B1
- binding result [1]: no binding (tested: 150 ng IgG1 per well)
- binding result [2]: no binding (tested: 150 ng IgG1 per well)
- Cells stained (%) [3]: 98.9%
- ELISA Absorbance (405 nm-570 nm) [4]: 0.092

B3: HW-45 chimeric rabbit-human IgG1 LA/LA/PG (antibody, V domains shown)
VH: QKQLVESGGRLVTPGTPLTLTCTVSGFSLSSYAMGWFRQAPGKGLEWIGIINSYGSTYYASWAKGRFTISKTSTTVDLKITSPTTEDTATYFCGRRIGSARFDPWGPGTLVTVSS
VL: B1 VL with R30S, T49R, S51T, N52R, I57V, D90S, I96S, Q98R, Y99L
notes: Fc-silenced (L234A/L235A/P329G) IgG1, lambda; Alexa Fluor 647-labeled in single-step flow cytometry; Prototype of cluster C-45
- mAb binding (MFI) [5]: 25400
- mAb binding (MFI) [6]: 59600

B4: HW-97 chimeric rabbit-human IgG1 LA/LA/PG (antibody, V domains shown)
VH: QKQLVESGGRLVTPGTPLTLTCTVTGIDLSSHGMSWVRQAPGKGLEWIGVIYPSGSTWYASWARGRFTISKTSTTVDLKMTSLTTEDTATHFCARGDVGGADNNIWGPGTLVTVSS
VL: B1 VL with N13D, D25E, R30S, T49R, S51T, N52S, I57V, D90S, I96S
notes: Fc-silenced (L234A/L235A/P329G) IgG1, lambda; Alexa Fluor 647-labeled in single-step flow cytometry; Prototype of cluster C-97
- binding result [1]: no binding (tested: 150 ng IgG1 per well)
- binding result [2]: no binding (tested: 150 ng IgG1 per well)
- ELISA Absorbance (405 nm-570 nm) [4]: 0.065

B5: HW-113 chimeric rabbit-human IgG1 LA/LA/PG (antibody, V domains shown)
VH: QKQLVESGGGLVQPGGSLTLTCTVSGFSLNKYYMGWFRQAPGKGLEWIGVISRSGDTYYSSWAKGRFTISKASTTVDLRITSPTTEDTATYFCARDASSPGFHGDRLDLWGQGTLVTVSS
VL: B1 VL with R30S, T49R, S51T, N52S, I57V, D90S, S93I, I96N, Q98L, Y99W
notes: Fc-silenced (L234A/L235A/P329G) IgG1, lambda; Alexa Fluor 647-labeled in single-step flow cytometry
- binding result [1]: no binding (tested: 150 ng IgG1 per well)
- binding result [2]: no binding (tested: 150 ng IgG1 per well)
- ELISA Absorbance (405 nm-570 nm) [4]: 0.078

B6: HW-28 chimeric rabbit-human IgG1 LA/LA/PG (antibody, V domains shown)
VH: QKQLVESGGRLVTPGTPLTLTCTASGFSLSSNAMSWVRQAPGEGLQWIGTISSGGSTYYASWAKGRFTISKTSTTVTLKMTSLTTEDTATYFCARGADLHRLWGPGTLVTVSS
VL: SFVLTQPASVQVNLGQTVSLTCTGKPLSRSFASWYQQKPGQAPVLVIYRDTSRPSGVPDRFSGSSSGNTATLTISGAQAGDEADYYCATSDGSGSSYQYVFGGGTQLTVTG
notes: Fc-silenced (L234A/L235A/P329G) IgG1, lambda; Alexa Fluor 647-labeled in single-step flow cytometry; Cluster C-45
- mAb binding (MFI) [5]: 44400
- mAb binding (MFI) [6]: 164000
